Data as given in patent publication US20060263334A1.

Key:
scTCR-CD4TM-hζ (human) = scTCR-CD4TM-hζ (human) (UniProt P01730); assay: flow cytometry, 293H cells transfected with scTCR-CD4TM-hζ. Reference bars: 293H 1.1, Control vector 1.4
[1] = target: MA scTCR (single chain Vα23.1Jα14.3-linker-Vβ8.3DβJβ1.2-Cβ2 fused through a thrombin-site linker to the murine CD3 ξ chain), displayed on transfected RBL or BWZ cells (human; mouse); assay: flow cytometry, 293H cells transfected with scTCR; bar marked **. Reference bars: 293H 1.1, Control vector 1.4
[2] = target: scTCR-AGD-CD4TM-hζ (human) (UniProt P01730); assay: flow cytometry, 293H cells transfected with scTCR-AGD-CD4TM-hζ; bar marked **. Reference bars: 293H 1.1, Control vector 1.4

Q: How did the Fold increase in MFI (scTCR-CD4TM-hζ (human)) turn out when anti-TCR βF1 antibody was run?
A: Its Fold increase in MFI is 2.1 fold.

Q: And the Fold increase in MFI [1]?
A: Its Fold increase in MFI is 4.4 fold.

Q: And the Fold increase in MFI [2]?
A: The Fold increase in MFI was 6.5 fold.
